Test: in vivo
Parameters: species or system Balb/c nude mice
Conditions: male, Balb/c nude, mouse, iv, total radioactivity
From the text: Healthy male Balb/c nude mice (˜18 g) from 8 weeks old were obtained from the ARC and used for this study. Mice were imported into the CAI animal holding facility and monitored for 1 week prior to the study in order to acclimatise to the environment prior to injection of cells. All animals were provided with free access to food and water before and during the imaging experiments which were approved by the University of Queensland Animal Ethics Committee (Approval #AIBN/CAI/105/19/ARC/NHMRC).
8-week-old male Balb/c nude mice were injected (27 G needle) subcutaneously with PC3 ([…]) cells in 50 μL of 50:50 matrigel and cells in phosphate buffered saline into the right flank of each mouse. There was no evidence of ulceration at the time of dosing; the animals were closely monitored and remained in good condition apart from the growth of tumours. […] Labelled peptides were injected via the tail vein (29 G needle; ˜2-3 MBq) and then mice were imaged using the Siemens Inveon PET-CT instrument at the various timepoints.
The injection syringe was filled with the radioisotope solution (approximately 150 μL) and the activity in the syringe was measured using a dose calibrator (Capintec CRC-25) with a calibration factor of 35. The activity left in the syringe after the tail vein injection was measured using the same dose calibrator and the total volume injected in each mouse was calculated.
Organs were excised at 24 hours, with the percentage of injected dose of the administered compound determined by ex vivo gamma counting (Table 2). Values are averages across 4 mice.

[1] = Percentage of injected dose in Blood
[2] = Percentage of injected dose in GI Tract
[3] = Percentage of injected dose in Heart
[4] = Percentage of injected dose in Kidneys
[5] = Percentage of injected dose in Liver
[6] = Percentage of injected dose in Lungs
[7] = Percentage of injected dose in Pancreas
[8] = Percentage of injected dose in Spleen
[9] = Percentage of injected dose in Tail
[10] = Percentage of injected dose in Tumour

Row | SMILES | tissue uptake at 24 h [1] | tissue uptake at 24 h [2] | tissue uptake at 24 h [3] | tissue uptake at 24 h [4] | tissue uptake at 24 h [5] | tissue uptake at 24 h [6] | tissue uptake at 24 h [7] | tissue uptake at 24 h [8] | tissue uptake at 24 h [9] | tissue uptake at 24 h [10]
1 | CC(C)C[C@H](NC(=O)C[C@H](O)[C@H](CC(C)C)NC(=O)[C@H](Cc1c[nH]cn1)NC(=O)CNC(=O)[C@@H](NC(=O)[C@H](C)NC(=O)[C@H](Cc1c[nH]c2ccccc12)NC(=O)[C@H](CCC(N)=O)NC(=O)[C@@H](Cc1ccccc1)NC(=O)CCOCCOCCOCCOCCNC(=O)CCCC(=O)NC12CNCCNCC(NC(=O)CCCC(=O)NC(CCCCNC(=O)CCCc3ccc(I)cc3)C(=O)O)(CNCCNC1)CNCCNC2)C(C)C)C(N)=O (stereo partly drawn) [Sar(ABG)(BBN)] | 7.22 ± 0.79 %ID/g | 1.93 ± 0.46 %ID/g | 3.1 ± 0.53 %ID/g | 4.29 ± 0.54 %ID/g | 2.96 ± 0.3 %ID/g | 4.85 ± 0.93 %ID/g | 6 ± 1.17 %ID/g | 2.68 ± 0.33 %ID/g | 2.06 ± 0.3 %ID/g | 22.3 ± 11 %ID/g
2 | CC(C)CC(NC(=O)CC(O)C(CC(C)C)NC(=O)C(Cc1c[nH]cn1)NC(=O)CNC(=O)C(NC(=O)C(C)NC(=O)C(Cc1c[nH]c2ccccc12)NC(=O)C(CCC(N)=O)NC(=O)C(Cc1ccccc1)NC(=O)CCOCCOCCOCCOCCNC(=O)CCCC(=O)NC12CNCCNCC(NC(=O)CCCC(=O)NCCOCCOCCOCCOCCC(=O)NC(Cc3ccccc3)C(=O)NC(CCC(N)=O)C(=O)NC(Cc3c[nH]c4ccccc34)C(=O)NC(C)C(=O)NC(C(=O)NCC(=O)NC(Cc3c[nH]cn3)C(=O)NC(CC(C)C)C(O)CC(=O)NC(CC(C)C)C(N)=O)C(C)C)(CNCCNC1)CNCCNC2)C(C)C)C(N)=O (stereo not drawn) [Sar(BBN)2] | 0.1 ± 0.05 %ID/g | 0.44 ± 0.04 %ID/g | 0.21 ± 0.03 %ID/g | 6.81 ± 0.67 %ID/g | 16.8 ± 1.55 %ID/g | 0.36 ± 0.12 %ID/g | 0.84 ± 0.06 %ID/g | 1.47 ± 0.2 %ID/g | 0.28 ± 0.05 %ID/g | 2.13 ± 0.86 %ID/g
3 | CC(C)C[C@H](NC(=O)C[C@H](O)[C@H](CC(C)C)NC(=O)[C@H](Cc1c[nH]cn1)NC(=O)CNC(=O)[C@@H](NC(=O)[C@H](C)NC(=O)[C@H](Cc1c[nH]c2ccccc12)NC(=O)[C@H](CCC(N)=O)NC(=O)[C@@H](Cc1ccccc1)NC(=O)CCOCCOCCOCCOCCNC(=O)CCCC(=O)NC12CNCCNCC(N)(CNCCNC1)CNCCNC2)C(C)C)C(N)=O [Sar(BBN)] | 0.13 ± 0.04 %ID/g | 0.3 ± 0.07 %ID/g | 0.24 ± 0.02 %ID/g | 3.55 ± 0.79 %ID/g | 1.52 ± 0.18 %ID/g | 0.31 ± 0.08 %ID/g | 0.23 ± 0.02 %ID/g | 0.38 ± 0.06 %ID/g | 0.56 ± 0.87 %ID/g | 4.09 ± 0.52 %ID/g

Reference: US20240050600A1, “Radiopharmaceuticals, uses thereof, and methods for the production thereof” (priority 2020, published 2024)
